These results are taken from patent US20250115680A1 (PROFOUNDBIO US, published 2025).

In assay [1] the target is T1, human PTK7 on the surface of PTK7-expressing tumor cell lines (human, UniProt Q13308 31-1070).
T1 construct: whole, on cells
T1 sequence (looked up): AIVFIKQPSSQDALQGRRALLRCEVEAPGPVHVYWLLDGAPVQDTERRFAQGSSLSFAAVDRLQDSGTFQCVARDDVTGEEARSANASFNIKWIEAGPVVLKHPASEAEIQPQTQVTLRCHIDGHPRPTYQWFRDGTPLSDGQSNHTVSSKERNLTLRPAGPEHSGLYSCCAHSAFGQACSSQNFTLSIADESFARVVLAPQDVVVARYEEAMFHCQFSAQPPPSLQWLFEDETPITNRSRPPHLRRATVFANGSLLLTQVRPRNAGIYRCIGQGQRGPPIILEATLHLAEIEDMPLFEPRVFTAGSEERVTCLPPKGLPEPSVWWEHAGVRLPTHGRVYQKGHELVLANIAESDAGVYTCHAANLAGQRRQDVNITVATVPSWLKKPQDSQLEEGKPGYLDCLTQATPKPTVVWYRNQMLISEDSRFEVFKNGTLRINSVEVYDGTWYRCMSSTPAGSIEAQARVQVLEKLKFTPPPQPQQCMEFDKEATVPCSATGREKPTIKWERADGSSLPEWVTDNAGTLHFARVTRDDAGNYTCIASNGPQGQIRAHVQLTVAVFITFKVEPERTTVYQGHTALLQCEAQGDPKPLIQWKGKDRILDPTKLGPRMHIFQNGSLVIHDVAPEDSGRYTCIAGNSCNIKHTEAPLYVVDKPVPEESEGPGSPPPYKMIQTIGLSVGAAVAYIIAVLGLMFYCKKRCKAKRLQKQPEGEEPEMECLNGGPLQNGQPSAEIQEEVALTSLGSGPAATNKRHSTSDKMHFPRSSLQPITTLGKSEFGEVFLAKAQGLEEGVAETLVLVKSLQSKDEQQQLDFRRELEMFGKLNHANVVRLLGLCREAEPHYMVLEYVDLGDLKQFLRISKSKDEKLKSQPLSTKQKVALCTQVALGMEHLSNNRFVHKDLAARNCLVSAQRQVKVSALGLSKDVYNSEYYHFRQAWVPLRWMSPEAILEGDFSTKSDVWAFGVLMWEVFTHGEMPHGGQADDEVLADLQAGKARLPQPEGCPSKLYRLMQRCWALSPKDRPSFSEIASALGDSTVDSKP
Briefly: flow cytometry on MDA-MB-468 cells. (In general: Flow cytometry measures light scatter and fluorescence of single cells or particles in a stream.)

Assay [2] has as its target T2, human PTK7 extra-cellular domain (ECD) linked to His tag (human, UniProt Q13308 31-704).
T2 construct: extracellular domain; also called hPTK7-his; human PTK7-his protein; not shown: His tag
T2 sequence (looked up): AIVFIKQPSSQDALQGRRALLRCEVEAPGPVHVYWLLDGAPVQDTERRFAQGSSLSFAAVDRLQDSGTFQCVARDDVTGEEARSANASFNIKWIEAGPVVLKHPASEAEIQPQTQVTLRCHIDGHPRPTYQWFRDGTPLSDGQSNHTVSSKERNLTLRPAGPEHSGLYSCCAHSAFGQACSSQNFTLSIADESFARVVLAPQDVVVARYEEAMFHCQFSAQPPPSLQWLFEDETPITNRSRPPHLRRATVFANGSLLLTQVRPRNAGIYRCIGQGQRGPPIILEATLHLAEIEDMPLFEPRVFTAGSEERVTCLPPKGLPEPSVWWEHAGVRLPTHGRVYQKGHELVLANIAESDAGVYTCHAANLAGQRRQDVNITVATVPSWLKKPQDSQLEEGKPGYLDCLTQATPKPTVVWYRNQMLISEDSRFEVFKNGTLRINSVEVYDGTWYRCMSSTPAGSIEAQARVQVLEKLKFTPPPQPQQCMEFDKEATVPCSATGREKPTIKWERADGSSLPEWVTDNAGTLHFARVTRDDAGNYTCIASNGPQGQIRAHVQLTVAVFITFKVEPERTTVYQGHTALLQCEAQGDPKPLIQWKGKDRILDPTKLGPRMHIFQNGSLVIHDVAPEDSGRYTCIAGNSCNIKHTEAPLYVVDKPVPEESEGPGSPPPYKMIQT
Briefly: ELISA screening of hybridoma supernatants on human PTK7-his. The procedure:
The cells were resuspended with an appropriate amount of electroporation buffer to ensure the cell concentration of about 2×10⁷ cells/mL. The cell suspension was added to a 9 mL electroporation tank for fusion. After fusion, the cell suspension was transferred to 20 mL RPMI 1640 complete medium containing 20% FBS and then left at room temperature for 20 min. The fused cells were resuspended with RPMI 1640 medium containing 1×HAT, 1×BIOMYC3, and 20% FBS. The cell suspension was added to several 96-well cell culture plates at 100 ul/well to ensure that the cell volume per well was about 5×10⁴ cells/well, and the plates were placed in a 37° C. cell incubator. After 7 days, additional 100 μL of RPMI 1640 complete medium containing 20% FBS, 1×HAT, and 1×BIOMYC-3 was added to each well. After 10 days, the cell culture supernatants from hybridoma parent clones were collected and used for screening by binding to human and cynomolgus monkey PTK7-his protein by ELISA.
A general note: An ELISA detects its analyte on a solid surface through an enzyme-linked reagent.

The target of assay [3] is T1, human PTK7 on the surface of …. Briefly: cell-based or functional assay.

B1: murine antibody m2C5 (antibody, V domains shown)
VH: EVQLLSSGPELVTPGASVKISCKASGYTFTDYYINWLKQSHGKSLEWIGDINPNSGGPVYNQKFMAKATLTVDKTSNTAYMELRSLTSEDSAVYYCARGDYYGSNYNYWGQGTTLTVSS
VL: DILLTQSPAILSVSPGERVSFSCRASQNIGTSIHWYQQRTNGSPRLLIKFASESISGIPSRFSGSGSGTDFALTINSVESEDIADYYCQQSNNWPYTFGGGTKLEIK
notes: Mouse hybridoma clone, tested as culture supernatant
With B1, the binding result in assay [1] and in assay [2] was “binds” throughout.

B2: PRO1107 (2C8-LD343 (8)) (other)
VH: QIQLVQSGAEVKKPGASVKVSCKASGYTFTTYGMSWVRQAPGQGLEWMGWINTHSGVPTYVDEFKGRVTMTLDTSTSTAYMELSSLRSEDTAVYYCARSPFDYGSRGAWFVYWGQGTTVTVSS
VL: DVVMTQSPDSLAVSLGERATINCRSSQSIVHNSGDTYLEWYQQKPGQPPKLLIYKVSNRFPGVPDRFSGSGSGTDFTLTISSLQAEDLAVYYCFQGSHVPWTFGGGTKVEIK
modifications: drug-linker LD343 (MMAE payload) coupled to cysteines of the TCEP-reduced antibody; DAR 7.5 by LC-MS; the chain carrying each drug is not stated
For the molecule B2, in assay [3], the “IC50 of in vitro cytotoxicity (Cell-titre Glo, 96 h), Detroit 562 cells” value amounted to 8.2 nM; the “IC50 of in vitro cytotoxicity (Cell-titre Glo, 96 h), MDA-MB-468 cells” value was found to be 0.00014 nM; the “IC50 of in vitro cytotoxicity (Cell-titre Glo, 96 h), OVCAR-3 cells” value came to 0.0011 nM; the “IC50 of in vitro cytotoxicity (Cell-titre Glo, 96 h), PA-1 cells” value stood at 0.008 nM. In addition, in assay [3], the “IC50 of in vitro cytotoxicity (Cell-titre Glo, 96 h), SNG-M cells” value is 0.02 nM and the “IC50 of in vitro cytotoxicity (Cell-titre Glo, 96 h), SW780 cells” value is 27.4 nM.

B3: murine antibody m13C4 (antibody, V domains shown)
VH: EVKLVESGGGLVKPGGSLKLSCAASGFAFSTYDMFWFRQTPEKRLEWVATISSGGGYTYYPGSVKGRFTISRDNARNTLYLQMSSLRSEDTALYYCVRPLLRDSYFYFDVWGAGTTVTVSS
VL: DIVMTQSPAIMSTSPGEKVTMTCRASSSVSSSYLHWYQQKSGASPKLWIFRTSNLASGVPARFSGSGSGTSYSLTISSVEAEDAATYYCQQYSGYPLTFGAGTKLELK
notes: as for B1
As for B3, the binding result in assay [1] and in assay [2] was “binds” throughout.

B4: murine antibody m2C8 (antibody, V domains shown)
VH: QIQLVQSGPELKKPGETVKISCKASGYTFTTYGMSWVKQAPGKGLKWMGWINTHSGVPTYVDEFKGRSAFSLETSASTAYLQINNLKNEDTATYFCARSPFDYGSRGAWFVYWGQGTLVTVSS
VL: DVLMTQTPLSLPVSLGDQASISCRSSQSIVHNNGDTYLEWYLQKPGQSPKLLIYKVSNRFPGVPDRFSGSGSGTDFTLKISRVEAEDLGLYYCFQGSHVPWTFGGGTKLEIK
notes: as for B1
For the molecule B4, the binding result in assay [1] and in assay [2] was “binds” each time.
